Measurements reported in US20150141617A1, “PRODUCTION AND PURIFICATION OF ACTIVE EUKARYOTIC FORMYLGLYCINEGENERATING ENZYME (FGE) VARIANTS” (Universität Bielefeld, priority 2013, published 2015).

Key:
[1] = molecular target: T1, 23 amino acid substrate peptide Ac-MTDFYVPVSLCTPSRAALLTGRS-NH2 (SEQ ID NO: 46)
T1 chain: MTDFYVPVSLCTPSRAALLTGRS

[2] = Stability of purified recombinant FGE upon storage (SDS-PAGE, Coomassie staining or western blotting); format: physicochemical
Protocol: Purified enzymes are preferably stored frozen at −20° C. or −80° C., but it is known that the freeze-thaw cycle can lead to a decrease in the stability of proteins and/or accompanied loss of enzymatic activity. To minimize this effect, it is common to add stabilizing agents to preserve the stability and functionality of proteins during long-term storage. Analyses of conditions that affect the stability of purified recombinant fl-FGE-R69A/R72A and Δ72-FGE-wt were performed. The stability was assessed by analyzing the purified protein by SDS-PAGE and subsequently visualized by Coomassie staining or western blotting using FGE anti-serum as described above.
Generation of truncated FGE was increasingly detected upon removing the imidazole by size exclusion chromatography (Panel SEC, FIG. 17A). To gain further insights, aliquots of the purified fraction from size exclusion chromatography were incubated at 4° C. for either 3.5 h or 20 h in the presence of various additives like NaCl, imidazole, arginine and glycerol and later assessed by western blot using FGE anti-serum.

[3] = test system: 23-aa long substrate peptide Ac-MTDFYVPVSLCTPSRAALLTGRS-NH2; assay: In vitro FGE activity assay (MALDI-ToF MS) with purified recombinant FGE from insect cells; format: biochemical; settings: for DTT concentration of maximal activity: 0-15 mM DTT, pH 9.3, 15 min 37° C.; for pH of maximal activity: MTGC buffer pH 6.5-11.0
Protocol: a) fl-FGE-R69A/R72A (SEQ ID NO: 4) is active and e.g. generates FGly within a 23-aa long substrate peptide 16 pmol of the 23 amino acid (aa) long peptide Ac-[…]-NH2 (SEQ ID NO:46) were incubated with 12 ng of fl-FGE-R69A/R72A for 20 min at 37° C. under assay conditions (50 mM Tris, 67 mM NaCl, 15 μM CaCl2, 0.33 mg/mL BSA, 2 mM DTT, pH 9.3 in a total volume of 30 μL).
The reaction was stopped by adding 3 μL of 20% trifluoroacetic-acid (TFA), immediately followed by vortexing and by a short centrifugation at 10000×g. The peptide was purified and concentrated by C18-Zip-Tip treatment. Therefore the Zip-Tip was prepared by pipetting three times 10 μL of 50% acetonitrile, 0.05% TFA in water and three times 10 μL 0.1% TFA in water. The 33 μL sample was pipetted 10 times up and down. The bound peptide was washed by pipetting 10 times 10 μL 0.1% TFA in water and was eluted in 10 μL 50% acetonitrile, 0.05% TFA in water by pipetting 10 times up and down. For MS-analysis the following matrix was prepared freshly: 40 μL of a saturated α-cyano-hydroxycinnamic acid solution in aceton were added to 10 μL of a solution containing 10 mg/mL nitrocellulose in 50% Aceton/50% Isopropanol (v/v). 0.5 μL of the matrix were spotted onto a polished steel target and 1 μL of the purified sample was added. The dried sample spot was analyzed by MALDI-ToF mass spectrometry using the Ultra flextreme spectrometer from Bruker Daltronics. The cysteine containing substrate peptide (2526.28 [M+H]^+) and the FGly containing product peptide (2508.29 [M+H]^+) were detected.
b) fl-FGE-R69A/R72A (SEQ ID NO:4) is able to generate FGly by using GSH as reductant:10 times stock solutions of DTT and GSH were prepared in 20 mM Tris pH 9.3. For the reaction, 13 ng of Baculo-fl-FGE were incubated with 16 pmol of the 23 aa-long substrate peptide, 2 mM DTT or 5 mM reduced glutathione for 15 min at 37° C. under assay conditions (50 mM Tris, 67 mM NaCl, 15 μM CaCl2, 0.33 mg/mL BSA, pH 9.3 in a total volume of 30 μL). The reactions were stopped and prepared further for MS-analysis as described above. The ratio of the intensity of the FGly-product peptide divided by the sum of the substrate and product intensities multiplied with 100 yields %-turnover of the substrate peptide. Based on that, specific activities were calculated.
The dependence of FGly-generating activity of recombinant fl-FGE-R69A/R72A on the reducing agents DTT and GSH were analyzed at pH 9.3 under standard assay conditions (FGE and substrate peptide were incubated at 37° C. in 50 mM Tris/HCl, 67 mM NaCl, and 0.33 mg/ml BSA in 30 μl volume. The reaction was started by addition of substrate) using a MALDI-mass spectrometry based in vitro activity assay (Ennemann et al., 2013 and FIG. 7).
The pH-dependence for in vitro activity of recombinant fl-FGE-R69A/R72A and Δ72-FGE-wt was analyzed under optimal DTT and GSH concentrations. Accordingly, the activity of recombinant fl-FGE-R69A/R72A in the presence of 2 mM DTT, under standard assay conditions, was measured in buffers of pH ranging from pH 6.5 to 11.0 (FIG. 19A). […] In the presence of 5 mM GSH, the maximal activity was also observed at pH 9.3 and a very similar activity profile ranging from pH 7.5 to 11 (FIG. 19B). […] In summary, fl-FGE-R69A/R72A requires less alkaline conditions for optimum activity than Δ72-FGE-wt.

B1: Δ72-FGE (SEQ ID NO: 6), produced in High Five insect cells (protein)
chain: ADLGSSMEFEANAPGPVPGERQLAHSKMVPIPAGVFTMGTDDPQIKQDGEAPARRVTIDAFYMDAYEVSNTEFEKFVNSTGYLTEAEKFGDSFVFEGMLSEQVKTNIQQAVAAAPWWLPVKGANWRHPEGPDSTILHRPDHPVLHVSWNDAVAYCTWAGKRLPTEAEWEYSCRGGLHNRLFPWGNKLQPKGQHYANIWQGEFPVTNTGEDGFQGTAPVDAFPPNGYGLYNIVGNAWEWTSDWWTVHHSVEETLNPKGPPSGKDRVKKGGSYMCHRSYCYRYRCAARSQNTPDSSASNLGFRCAADRLPTMDSGRGSHHHHHHH
- conversion of the Cys substrate peptide to the FGly product peptide (MALDI-ToF MS), DTT as reductant [1]: The Δ72-FGE (SEQ ID NO: 6) variant also converts the cysteine-containing substrate peptide to the FGly-containing product peptide in presence of the reductant DTT

B2: dimeric FGE: disulfide-bridged dimeric form of recombinant fl-FGE-R69A/R72A separated by size exclusion chromatography (protein)
chain: ADEFSQEAGTGAGAGSLAGSCGCGTPQRPGAHGSSAAAHAYSAEANAPGPVPGERQLAHSKMVPIPAGVFTMGTDDPQIKQDGEAPARRVTIDAFYMDAYEVSNTEFEKFVNSTGYLTEAEKFGDSFVFEGMLSEQVKTNIQQAVAAAPWWLPVKGANWRHPEGPDSTILHRPDHPVLHVSWNDAVAYCTWAGKRLPTEAEWEYSCRGGLHNRLFPWGNKLQPKGQHYANIWQGEFPVTNTGEDGFQGTAPVDAFPPNGYGLYNIVGNAWEWTSDWWTVHHSVEETLNPKGPPSGKDRVKKGGSYMCHRSYCYRYRCAARSQNTPDSSASNLGFRCAADRLPTMDSGRGSHHHHHHH
- stability of dimeric vs monomeric form [2]: more stable than monomeric fl FGE forms
- DTT concentration of maximal activity [3]: 0.1 to 1 mM
- DTT concentration for optimal activity under in vitro conditions ([3]; pH 9.3): 0.1 to 2 mM

B3: monomeric FGE (protein)
chain: ADEFSQEAGTGAGAGSLAGSCGCGTPQRPGAHGSSAAAHAYSAEANAPGPVPGERQLAHSKMVPIPAGVFTMGTDDPQIKQDGEAPARRVTIDAFYMDAYEVSNTEFEKFVNSTGYLTEAEKFGDSFVFEGMLSEQVKTNIQQAVAAAPWWLPVKGANWRHPEGPDSTILHRPDHPVLHVSWNDAVAYCTWAGKRLPTEAEWEYSCRGGLHNRLFPWGNKLQPKGQHYANIWQGEFPVTNTGEDGFQGTAPVDAFPPNGYGLYNIVGNAWEWTSDWWTVHHSVEETLNPKGPPSGKDRVKKGGSYMCHRSYCYRYRCAARSQNTPDSSASNLGFRCAADRLPTMDSGRGSHHHHHHH
- DTT concentration of maximal activity [3]: 2 mM
- DTT concentration for optimal activity under in vitro conditions ([3]; pH 9.3): 1 to 10 mM

B4: fl-FGE-R69A/R72A: human full length FGE variant, Arginine-69 and Arginine-72 converted to Alanine, non-cleavable furin motif, SEQ ID NO:4 (protein)
chain: ADEFSQEAGTGAGAGSLAGSCGCGTPQRPGAHGSSAAAHAYSAEANAPGPVPGERQLAHSKMVPIPAGVFTMGTDDPQIKQDGEAPARRVTIDAFYMDAYEVSNTEFEKFVNSTGYLTEAEKFGDSFVFEGMLSEQVKTNIQQAVAAAPWWLPVKGANWRHPEGPDSTILHRPDHPVLHVSWNDAVAYCTWAGKRLPTEAEWEYSCRGGLHNRLFPWGNKLQPKGQHYANIWQGEFPVTNTGEDGFQGTAPVDAFPPNGYGLYNIVGNAWEWTSDWWTVHHSVEETLNPKGPPSGKDRVKKGGSYMCHRSYCYRYRCAARSQNTPDSSASNLGFRCAADRLPTMDSGRGSHHHHHHH
modifications: double fl FGE variant R69A / R72A
- stability with added imidazole ([2]; 250 mM imidazole, one freeze-thaw cycle, two weeks at −80° C.): more stable
- truncated fragment (~37 kDa) of the total protein after thawing ([2]; Ni-NTA fractions containing 250-500 mM imidazole, long-term storage −80° C.): less than 5%
- stability after long-term storage ([2]; Ni-NTA fractions containing 250-500 mM imidazole, −80° C.): highly stable
- truncation on prolonged incubation ([2]; SEC fraction (imidazole removed), 4° C., 3.5 h or 20 h): led to generation of truncated fragments
- truncation on incubation with additive ([2]; SEC fraction, 4° C., 250 mM imidazole or 850 mM NaCl): prevented further increase of FGE truncation
- specific activity in presence of the control reductant DTT ([3]; 2 mM DTT, 15 min 37° C., pH 9.3, 4 measurements): 24.1±1.7 mU/mg
- pH of maximal activity ([3]; 2 mM DTT): 9.3
- FGly generation in substrate peptide in presence of DTT ([3]; 2 mM DTT, pH 9.3, 37° C.): is active
- pH of maximal activity ([3]; 5 mM GSH): 9.3
- specific activity in presence of GSH ([3]; 5 mM reduced glutathione, 15 min 37° C., pH 9.3, 4 measurements): 15.6±1.3 mU/mg
- FGly generation using GSH as reductant ([3]; 5 mM reduced glutathione, pH 9.3): active in presence of GSH
- dependence of activity on reducing agent (DTT or GSH) ([3]; in vitro, pH 9.3): fully functional in the presence of either DTT or glutathione (GSH)
- activity in the absence of externally added reducing agents ([3]; pH 9.3): very low activity
- specific activity ([3]; purified from Baculovirus expression system (Example 7)): 33 mU/mg
